According to patent US20230012273A1 (Boehringer Ingelheim, published 2023):

T1: cynoSIRPα (EGM_02252), Extracellular Domain + His-Tag (cynomolgus monkey)
T1 construct: also called CySIRPα EGM_02252; not shown: His-Tag
T1 chain: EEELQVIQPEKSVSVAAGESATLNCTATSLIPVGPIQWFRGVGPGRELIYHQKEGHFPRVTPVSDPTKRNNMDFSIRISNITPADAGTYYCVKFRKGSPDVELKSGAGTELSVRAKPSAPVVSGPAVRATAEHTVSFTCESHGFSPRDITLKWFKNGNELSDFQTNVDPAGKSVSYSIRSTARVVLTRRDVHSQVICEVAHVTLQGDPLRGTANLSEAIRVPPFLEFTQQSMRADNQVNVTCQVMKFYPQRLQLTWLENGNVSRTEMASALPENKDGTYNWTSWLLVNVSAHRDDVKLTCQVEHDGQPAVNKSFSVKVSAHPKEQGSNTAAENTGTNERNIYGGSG

T2: cynoSIRPα (NP_001271679), Extracellular Domain + His-Tag (cynomolgus monkey)
T2 construct: also called CySIRPα NP_001271679; not shown: His-Tag
T2 chain: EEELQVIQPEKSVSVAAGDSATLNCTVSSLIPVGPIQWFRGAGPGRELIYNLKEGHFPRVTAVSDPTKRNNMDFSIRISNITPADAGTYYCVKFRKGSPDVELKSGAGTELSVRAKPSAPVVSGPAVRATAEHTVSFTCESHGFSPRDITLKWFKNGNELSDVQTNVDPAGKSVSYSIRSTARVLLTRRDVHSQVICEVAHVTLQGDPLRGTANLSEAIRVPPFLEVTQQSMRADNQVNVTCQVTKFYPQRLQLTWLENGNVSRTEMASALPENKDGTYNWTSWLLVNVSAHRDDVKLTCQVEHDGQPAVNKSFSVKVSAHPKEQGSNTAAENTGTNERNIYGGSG

T3: cynoSIRPα (XP_015313155), Extracellular Domain + His-Tag (cynomolgus monkey)
T3 construct: also called CySIRPα XP_015313155; not shown: His-Tag
T3 chain: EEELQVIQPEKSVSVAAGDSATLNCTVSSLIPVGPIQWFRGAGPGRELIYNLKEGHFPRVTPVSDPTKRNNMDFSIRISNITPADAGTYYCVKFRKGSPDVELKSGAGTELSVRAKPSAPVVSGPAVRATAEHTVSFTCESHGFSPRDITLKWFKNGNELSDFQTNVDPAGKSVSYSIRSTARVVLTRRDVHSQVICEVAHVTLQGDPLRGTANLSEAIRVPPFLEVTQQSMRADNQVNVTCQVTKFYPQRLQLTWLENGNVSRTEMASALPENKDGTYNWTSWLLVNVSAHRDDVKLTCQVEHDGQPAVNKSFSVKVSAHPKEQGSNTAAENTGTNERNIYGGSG


Key:
[1] = target: T1, cynoSIRPα (EGM_02252), Extracellular …; assay: SPR, antibody captured on Protein A/G, ECD-His analyte
Protocol: (§1) The binding kinetics of anti-SIRPα antibodies to various SIRPα analytes are determined by surface plasmon resonance (SPR) using a Biacore 8K+(Cytiva). 1×HBS-EP+(Cytiva) is used as running buffer and for all the dilutions unless stated otherwise. The Series S CM5 sensorchip is activated with a 1:1 mixture of 0.1 M NHS (N-hydroxysuccinimide) and 0.4 M EDC (1-Ethyl-3-(3-dimethylaminopropyl) carbodiimide hydrochloride) for 420 seconds at a flow rate of 10 μl/min and immobilized with Protein A/G (Thermo Scientific, 10 μg/ml in 10 mM acetate pH 4.5) for 420 seconds at a flowrate of 10 μl/min resulting in approximately 3000 RU of Protein A/G on the surface. The sensorchip is then deactivated with 1 M ethanolamine HCl pH 8.5 for 420 seconds at a flowrate of 10 μl/min.
(§2) Antibodies (approximately 1 ug/ml) are captured on the Protein A/G surface for 60 seconds at a flowrate of 10 μl/min resulting in capture levels of approximately 240 RU. Dilutions of each SIRP protein (Extracellular Domain+His-Tag, with the concentrations as indicated) are injected as analytes over the captured antibody for 300 seconds of association at a flowrate of 30 μl/min, followed by a dissociation for 600 seconds.

[2] = target: T4, Human SIRPαV1 (NP_542970.1), Extracellular Domain + His-Tag (human, UniProt P78324 31-373); assay: SPR, antibody captured on Protein A/G, ECD-His analyte, 1:1 fit
T4 construct: also called huSIRPαV1; hSIRPαV1; not shown: His-Tag
T4 sequence (P78324 other isoform, or with tags, fused parts or gaps): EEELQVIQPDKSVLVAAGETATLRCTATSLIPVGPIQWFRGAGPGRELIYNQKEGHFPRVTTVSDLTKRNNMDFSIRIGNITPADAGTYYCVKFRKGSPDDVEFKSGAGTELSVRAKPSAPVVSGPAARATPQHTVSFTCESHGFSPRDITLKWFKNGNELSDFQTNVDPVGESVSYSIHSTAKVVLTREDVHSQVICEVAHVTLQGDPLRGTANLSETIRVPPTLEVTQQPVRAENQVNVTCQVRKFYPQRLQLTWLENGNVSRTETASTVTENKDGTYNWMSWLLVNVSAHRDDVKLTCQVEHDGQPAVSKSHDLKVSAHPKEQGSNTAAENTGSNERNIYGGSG
Protocol: as §1, §2
(§3) The above procedures are used to measure binding properties of antibodies of the present disclosure. For each analyte used, the highest concentration was as indicated in Example 3 (see Table 36).

[3] = target: T2, cynoSIRPα (NP_001271679), Extracellular …; assay: as above
Protocol: as §1, §2, §3

[4] = target: T5, Human SIRPαV2 (CAA71403.1), Extracellular Domain + His-Tag (human, UniProt P78324 31-373); assay: as above
T5 construct: also called huSIRPαV2; hSIRPαV2; not shown: His-Tag
T5 sequence (P78324 other isoform, or with tags, fused parts or gaps): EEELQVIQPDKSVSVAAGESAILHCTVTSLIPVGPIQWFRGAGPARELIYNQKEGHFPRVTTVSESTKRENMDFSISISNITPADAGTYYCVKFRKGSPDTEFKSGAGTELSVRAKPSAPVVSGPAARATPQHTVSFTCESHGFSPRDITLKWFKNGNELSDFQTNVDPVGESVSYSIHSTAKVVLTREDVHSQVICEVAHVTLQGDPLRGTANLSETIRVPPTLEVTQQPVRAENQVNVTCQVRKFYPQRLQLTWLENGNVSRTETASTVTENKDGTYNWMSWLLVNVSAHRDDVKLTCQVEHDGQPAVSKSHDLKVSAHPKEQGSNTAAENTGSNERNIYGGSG
Protocol: as §1, §2, §3

[5] = target: T3, cynoSIRPα (XP_015313155), Extracellular …; assay: as above
Protocol: as §1, §2, §3

| binding result [1] | Kd [2] | koff [2] | kon [2] | Kd [3] | koff [3] | kon [3] | Kd [4] | koff [4] | kon [4] | Kd [5] | koff [5] | kon [5] | Binder |
| --- | --- | --- | --- | --- | --- | --- | --- | --- | --- | --- | --- | --- | --- |
| no binding (tested: 1000 nM) | 0.91 nM | 0.000419 s⁻¹ | 459000 M⁻¹ s⁻¹ | 20.7 nM | 0.00526 s⁻¹ | 254000 M⁻¹ s⁻¹ | 0.69 nM | 0.000367 s⁻¹ | 535000 M⁻¹ s⁻¹ | 19.7 nM | 0.00512 s⁻¹ | 260000 M⁻¹ s⁻¹ | Antibody E2 (antibody, human IgG1, kappa, L234A L235A, V domains shown) VH: QVQLQESGPGLVRPSETLSLTCTVSGGSIRNYYWSWIRQPPGKGLEWIGFIYYNGRTFYNPSLKSRVTISLDMSINQFSLKMTSVTAADTAVYYCARVRAYSGIGLDGTDVWGQGTTVTVSS VL: DIVMTQSPLSLPVTPGEPASISCKSSQSLLYSNGYAYLDWYLQRPGQSPQLLIYLGSNRASGVPDRFSGSGSGTDFTLKISRVEAEDVGVYYCMQALQTPLTFGGGTKVEIKR |
| no binding (tested: 1000 nM) | 0.72 nM | 0.000299 s⁻¹ | 414000 M⁻¹ s⁻¹ | 17.9 nM | 0.00327 s⁻¹ | 183000 M⁻¹ s⁻¹ | 0.63 nM | 0.00033 s⁻¹ | 523000 M⁻¹ s⁻¹ | 16.7 nM | 0.00317 s⁻¹ | 190000 M⁻¹ s⁻¹ | Antibody E1 (antibody, human IgG1, kappa, L234A L235A, V domains shown) VH: QVQLQESGPGLVRPSETLSLTCTVSGGSIRNYYWSWIRQPPGKGLEWIGFIYYNGRTFYNPSLKSRVTISLDMSINQFSLKMTSVTAADTAVYYCARVRAYSGIGLDGTDVWGQGTTVTVSS VL: DIVMTQSPLSLPVTPGEPASISCKSSQSLLYSNGYAYLDWYLQRPGQSPQLLIYQGSNRASGVPDRFSGSGSGTDFTLKISRVEAEDVGVFYCMQALQTPLTFGGGTKVEIKR |
| no binding (tested: 1000 nM) | 0.96 nM | 0.000371 s⁻¹ | 385000 M⁻¹ s⁻¹ | 17.3 nM | 0.00291 s⁻¹ | 168000 M⁻¹ s⁻¹ | 0.78 nM | 0.000366 s⁻¹ | 472000 M⁻¹ s⁻¹ | 16.9 nM | 0.00288 s⁻¹ | 170000 M⁻¹ s⁻¹ | Antibody E3 (antibody, human IgG1, kappa, L234A L235A, V domains shown) VH: QVQLQESGPGLVRPSETLSLTCTVSGGSIRNYYWSWIRQPPGKGLEWIGFIYYNGRTFYNPSLKSRVTISLDMSKNQFSLKMTSVTAADTAVYYCARVRAYSGIGLDGTDVWGQGTTVTVSS VL: DIVMTQSPLSLPVTPGEPASISCKSSQSLLYSNGYAYLDWYLQRPGQSPQLLIYQGSNRASGVPDRFSGSGSGTDFTLKISRVEAEDVGVFYCMQALQTPLTFGGGTKVEIKR |
